Among the data in the Human Domainome abundance scans (Beltran et al. 2025) are abundance fitness values, retold here.

± gives the uncertainty stated by the source.

The chains are these.
B1: Protein S100-G, residues 1 to 79; numbered along this chain, P02633 (parent)
chain: MSAKKSPEELKGIFEKYAAKEGDPNQLSKEELKLLLQTEFPSLLKGPSTLDELFEELDKNGDGEVSFEEFQVLVKKISQ

In the data set the parent is B1. Put plainly: abundance fitness (aPCA) (normalised: wild type 0, dead -1); higher = more abundant; growth selection in yeast, the domain comes from the species named. To be noted: Bos taurus.
On to L53A, for which the abundance fitness amounted to 0.055 ± 0.069.
In the case of L53P it was 0.033 ± 0.076; in that of S42G, -0.023 ± 0.075.
Then S42F, with -0.049 ± 0.081; and S42A, with -0.011 ± 0.072; and S42V, with -0.058 ± 0.071.
In the case of S42Y it was -0.047 ± 0.08; in that of K59C, 0.021 ± 0.08; in that of K59Y, -0.079 ± 0.087.
Regarding K59I, the abundance fitness is -0.105 ± 0.075.
For G46R, the abundance fitness was -0.008 ± 0.064.
In the case of G46H it was 0.039 ± 0.07.
In the case of G46F, the abundance fitness is -0.005 ± 0.068.
G46K: the abundance fitness was -0.001 ± 0.071.
Then G46S, with -0.017 ± 0.057; and G46P, with -0.041 ± 0.065; and G46N, with 0.037 ± 0.07.
In the case of G22Y it was -0.204 ± 0.086; in that of G22L, -0.319 ± 0.065; in that of G22P, -0.19 ± 0.075.
In the case of G22S it was -0.114 ± 0.064.
Take G22V: the abundance fitness is -0.29 ± 0.075.
As to G22F, the abundance fitness is -0.431 ± 0.091.
In the case of E30V it was 0.071 ± 0.07; in that of E30W, -0.074 ± 0.086; in that of K45L, -0.018 ± 0.062.
Then K45M, with 0.002 ± 0.082; and K45W, with -0.012 ± 0.1.
Then S6C, with -0.398 ± 0.089; and S6T, with -0.03 ± 0.073.
With S6G, the abundance fitness is -0.103 ± 0.072.
Then S6A, with -0.227 ± 0.07; and S6R, with -0.232 ± 0.067; and E21T, with -0.082 ± 0.071.
In the case of E21C it was 0.011 ± 0.092; in that of E21H, -0.014 ± 0.081.
Take E21A: the abundance fitness was found to be 0.003 ± 0.074.
In the case of L44I it was 0.033 ± 0.082; in that of L44R, -0.024 ± 0.068.
In the case of L44F it was -0.006 ± 0.07; in that of L44D, 0.033 ± 0.091; in that of S28R, -0.065 ± 0.066.
For the variant S28L, the abundance fitness is -0.208 ± 0.068.
Then S28F, with -0.425 ± 0.089; and S28I, with -0.282 ± 0.089.
In the case of S28Q it was -0.008 ± 0.085.
For S66P, the abundance fitness is -0.107 ± 0.074.
Then S66H, with -0.146 ± 0.083; and F70N, with -1.25 ± 0.093; and F70G, with -0.73 ± 0.079.
For the variant F70V, the abundance fitness is -0.165 ± 0.07.
In the case of F70S it was -0.531 ± 0.064.
Then F70K, with -0.965 ± 0.09.
Then F70C, with -0.169 ± 0.099.
For the variant L32N, the abundance fitness is -0.673 ± 0.093.
As to L32S, the abundance fitness is -0.138 ± 0.064.
For the variant L32T, the abundance fitness is -0.054 ± 0.075.
As for L32A, the abundance fitness came to 0.027 ± 0.073.
Then L32K, with -1.03 ± 0.098; and L32V, with -0.067 ± 0.067; and L32Y, with -0.205 ± 0.087.
Then V65Q, with -0.165 ± 0.077; and V65N, with -0.2 ± 0.094; and V65I, with 0.007 ± 0.088.
Then V72P, with -0.018 ± 0.078.
As to V72N, the abundance fitness was -0.012 ± 0.092.
In the case of V72H it was -0.029 ± 0.082; in that of V72Y, -0.059 ± 0.087.
In the case of V72G it was 0.038 ± 0.077.
In the case of K29R it was 0.027 ± 0.065; in that of D58S, 0.025 ± 0.065.
Turning to D58C, the abundance fitness is -0.022 ± 0.089.
In the case of D58L it was 0.054 ± 0.064; in that of D58A, -0.107 ± 0.071.
Then E52D, with -0.056 ± 0.084; and E52F, with -0.068 ± 0.084.
In the case of E52Q it was -0.023 ± 0.079.
On to E52G, for which the abundance fitness worked out at 0.026 ± 0.07.
In the case of E52H it was 0.04 ± 0.086; in that of D51P, 0.032 ± 0.072.
In the case of D51Y it was -0.145 ± 0.078; in that of D51W, -0.142 ± 0.081; in that of D51M, 0.005 ± 0.082.
Then D51K, with -0.043 ± 0.078; and D51I, with -0.08 ± 0.086.
On to L36W, for which the abundance fitness is -0.076 ± 0.087.
In the case of L36E it was -1.37 ± 0.11.
In the case of L36G it was -0.589 ± 0.085; in that of L36R, -1.92 ± 0.092; in that of L36F, -0.008 ± 0.074.
For L36Y, the abundance fitness was -0.209 ± 0.075.
In the case of L36A it was -0.1 ± 0.07; in that of V74E, -0.004 ± 0.092.
In the case of V74G it was -0.023 ± 0.071.
In the case of V74L, the abundance fitness was -0.018 ± 0.054.
Consider V74D, for which the abundance fitness was -0.044 ± 0.083.
Then V74N, with -0.001 ± 0.071; and V74C, with -0.069 ± 0.077; and K11P, with -0.373 ± 0.068.
As for K11C, the abundance fitness was -0.202 ± 0.099.
With K11H, the abundance fitness is -0.14 ± 0.078.
K11G: the abundance fitness is -0.176 ± 0.11.
Then K11I, with -0.002 ± 0.078; and K11D, with -0.369 ± 0.1.
Then E39L, with -0.207 ± 0.065; and E39V, with -0.304 ± 0.068.
Then E39P, with -1.63 ± 0.097; and E39A, with -0.515 ± 0.07; and E39D, with -0.16 ± 0.082.
G63L: the abundance fitness was -0.13 ± 0.064.
For G63Y, the abundance fitness amounted to 0.002 ± 0.12.
Then P47L, with -0.027 ± 0.074; and P47M, with -0.004 ± 0.091; and P47D, with -0.02 ± 0.12.
Then P47F, with -0.015 ± 0.091; and P47Y, with 0.042 ± 0.09; and P47G, with -0.023 ± 0.1.
Then F40C, with -0.059 ± 0.082; and F40Q, with -0.178 ± 0.081; and F40A, with -0.189 ± 0.079.
F40W: the abundance fitness is 0.008 ± 0.095.
In the case of L27M it was -0.054 ± 0.085; in that of L27V, -0.02 ± 0.073.
L27G: the abundance fitness is -0.786 ± 0.076.
Then L27H, with -0.751 ± 0.092; and L27S, with -0.611 ± 0.068.
In the case of L27D it was -0.855 ± 0.1; in that of E56R, -0.02 ± 0.07; in that of E56L, -0.082 ± 0.065.
E31V: the abundance fitness is -0.033 ± 0.079.
In the case of E31G it was 0.015 ± 0.084; in that of E8Y, -0.101 ± 0.081; in that of E8V, -0.051 ± 0.074.
For E8S, the abundance fitness was -0.106 ± 0.063.
In the case of E8H it was -0.148 ± 0.084; in that of E8A, -0.054 ± 0.076.
In the case of E8I it was -0.029 ± 0.079.
Then E8Q, with 0.033 ± 0.089; and N60L, with -0.034 ± 0.07; and N60Q, with -0.043 ± 0.087.
Turning to N60T, the abundance fitness was -0.042 ± 0.078.
In the case of N60I, the abundance fitness turned out to be 0 ± 0.092.
In the case of N60E it was 0.108 ± 0.1; in that of N60M, -0.164 ± 0.087; in that of L35S, -0.206 ± 0.06.
On to L35M, for which the abundance fitness turned out to be 0.031 ± 0.076.
For L35Q, the abundance fitness is -0.684 ± 0.091.
Regarding L35F, the abundance fitness was -0.164 ± 0.069.
Then L35G, with -0.51 ± 0.085; and L35C, with -0.064 ± 0.08; and L34A, with 0.066 ± 0.075.
Then L34T, with 0.023 ± 0.074.
L34G: the abundance fitness is 0.035 ± 0.08.
For the variant T49H, the abundance fitness amounted to 0.047 ± 0.075.
In the case of T49D, the abundance fitness is -0.08 ± 0.095.
Consider T49P, for which the abundance fitness is -0.051 ± 0.063.
In the case of T49I it was -0.021 ± 0.078; in that of K76M, -0.218 ± 0.087.
Then K76L, with -0.247 ± 0.059; and K76D, with -0.127 ± 0.088.
As to K76T, the abundance fitness is -0.175 ± 0.064.
In the case of K76W it was -0.293 ± 0.097; in that of Q79S, 0.041 ± 0.072; in that of Q79A, 0.008 ± 0.088.
In the case of Q79L it was -0.017 ± 0.086.
In the case of Q79I it was -0.346 ± 0.13.
For the variant Q79P, the abundance fitness was determined as 0.254 ± 0.09.
